According to patent US20220220224A1 (Hoffmann-La Roche, published 2022):

How the values were obtained:
[1] = target: T1, human FolR2 on transfected HEK cells (human, UniProt P14207 17-230); experiment: flow cytometry on transfected HEK cells
T1 construct: whole, on cells

[2] = target: T2, recombinant biotinylated monomeric Fc fusion of murine Folate Receptor 1 (mu FolR1 ECD-AcTev-Fcknob-Avitag … (murine, UniProt P0DOX5 223-449 = IgG part, biotin on the C-terminal Avi tag)); experiment: SPR Biacore, affinity (monovalent), antibody captured via anti-Fab
T2 construct: also called muFolR1-Fc; murine FolR1
Protocol: (§1) The affinity of the interaction between the anti-FolR1 IgG or T cell bispecifics and the recombinant folate receptors was determined as described below (Table 26).
(§2) For affinity measurement, direct coupling of around 12000 resonance units (RU) of the anti-human Fab specific antibody (Fab capture kit, GE Healthcare) was performed on a CM5 chip at pH 5.0 using the standard amine coupling kit (GE Healthcare). Anti-FolR1 IgG or T cell bispecifics were captured at 20 nM with a flow rate of 10 μl/min for 40 sec, the reference flow cell was left without capture. […] The dissociation phase was monitored for 300 s and triggered by switching from the sample solution to HBS-EP. The chip surface was regenerated after every cycle using a double injection of 60 sec 10 mM Glycine-HCl pH 1.5. Bulk refractive index differences were corrected for by subtracting the response obtained on the reference flow cell 1. The affinity constants for the interactions were derived from the rate constants by fitting to a 1:1 Langmuir binding using the Bia Evaluation software (GE Healthcare).

[3] = target: T3, recombinant biotinylated monomeric Fc fusion of cynomolgus Folate Receptor 1 (cy FolR1 ECD-AcTev-Fcknob-Avi … (cynomolgus, UniProt P0DOX5 223-449 = IgG part, biotin on the C-terminal Avi tag)); experiment: as above
T3 construct: also called cyFolR1-Fc; cyno FolR1
Protocol: as §1, §2

[4] = target: T4, recombinant biotinylated monomeric Fc fusion of human Folate Receptor 1 (huFolR1 ECD-AcTev-Fcknob-Avi tag … (human, UniProt P0DOX5 223-449 = IgG part, biotin on the C-terminal Avi tag)); experiment: as above
T4 construct: also called huFolR1-Fc; human FolR1-Fc
Protocol: as §1, §2

T1 sequence (P14207 17-230): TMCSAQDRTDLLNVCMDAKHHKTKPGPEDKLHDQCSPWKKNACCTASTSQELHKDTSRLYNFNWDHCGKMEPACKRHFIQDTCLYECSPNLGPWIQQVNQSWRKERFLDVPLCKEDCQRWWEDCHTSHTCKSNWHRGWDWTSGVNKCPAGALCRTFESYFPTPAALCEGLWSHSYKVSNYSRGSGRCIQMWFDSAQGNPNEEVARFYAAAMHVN

B1: 36F2 IgG (antibody, V domains shown)
VH: QVQLVQSGAEVKKPGASVKVSCKASGYTFTSYYMHWVRQAPGQGLEWMGIINPSGGSTSYAQKFQGRVTMTHDTSTSTVYMELSSLRSEDTAVYYCARSFFTGFHLDYWGQGTLVTVSS
VL: EIVLTQSPGTLSLSPGERATLSCRASQSVSSSYLAWYQQKPGQAPRLLIYGASSRATGIPDRFSGSGSGTDFTLTISRLEPEDFAVYYCQQYTNEHYYTFGQGTKVEIK
binding result [1]: no binding | Kd [2]: 210 nM | koff [2]: 0.0178 s⁻¹ | kon [2]: 83200 M⁻¹ s⁻¹ | Kd [3]: 570 nM | koff [3]: 0.0578 s⁻¹ | kon [3]: 102000 M⁻¹ s⁻¹ | Kd [4]: 730 nM | koff [4]: 0.0665 s⁻¹ | kon [4]: 91000 M⁻¹ s⁻¹
